The Kd is a measure of binding affinity in units of concentration. A lower Kd goes with a tighter complex.

One experiment addresses A-peak-BSA (Bos taurus, UniProt P02769). In words: Suppression test of DAB oxidation of A-peak-BSA (Example 32). In kind it is biochemical. Conditions: PB-1 1.8 mg/mL; A-peak-BSA 2 mg/mL; white LED 3000 lux overnight. The procedure: Diaminobenzidine (DAB, Dojindo Laboratories) was prepared into 5 mg/mL in a PBS solution. A-peak-BSA (2 mg/mL, PBS solution) was prepared in the same way as in Example 24. 10 μL of the DAB solution was added to a 0.6 mL microtube (Watson), and 100 μL of PBS, the PB-1 antibody (1.8 mg/mL), or a mouse IgG isotype control (Ctrl-mIgG, Thermo Fisher Scientific Inc.) was further added thereto. After stirring with a vortex mixer, 10 μL of the A-peak-BSA solution was added thereto. These solutions were stirred with a vortex mixer and then irradiated overnight with white LED (3000 lux). The solutions thus irradiated with light were stirred with a vortex mixer, then spun down, and recovered at 100 μL/well into Violamo 96-well plate (AS ONE Corp.).
Absorbance at a wavelength of 460 nm was measured with a microplate reader (Cytation 5, BioTek Instrument Inc.) to detect oxidized DAB. The ordinate of the graph depicts a relative value to oxidized DAB detected in the antibody-untreated group (PBS addition group).

The target in experiment [1] is T1, Glycer-AGEs-BSA (Bos taurus, UniProt P02769). In words: Specificity of SJ-5 by competitive ELISA (Example 7). The conditions noted are these: GAL13-BSA or Glycer-AGEs-BSA immobilized, POD-labeled SJ-5 0.4 μg/mL. It counts as binding. The procedure:
GAL13-BSA or Glycer-AGEs-BSA prepared into 1 μg/mL with PBS (pH 7.4) was added as an immobilized antigen at 100 μL/well to a 96-well microtiter plate (NUNC) and left at 25° C. for 1 hour. The antigen was immobilized overnight at 4° C. The plate was washed three times with PBS containing 0.05% (v/v) Tween 20 (PBS-T) and then blocked with a carbonate buffer solution (pH 9.5) containing 0.5% (w/v) gelatin for 1 hour. A POD-labeled SJ-5 antibody (0.4 μg/mL) was prepared under the same conditions as in Example 6. In order to confirm specificity, BSA containing AGEs derived from glucose (Glu-AGEs-BSA), BSA containing AGEs derived from glycolaldehyde (Glycol-AGEs-BSA), BSA containing AGEs derived from methylglyoxal (MGO-AGEs-BSA), BSA containing AGEs derived from glyoxal (GO-AGEs-BSA), BSA containing N^ε-carboxymethyllysine (CML-BSA), BSA containing N^ε-carboxyethyllysine (CEL-BSA), and bovine serum albumin (BSA) were added at 50 μL/well to the antigen-immobilized plate in the same way as above, and the POD-labeled SJ-5 antibody (50 μL) was further added thereto, and stirred with a plate mixer, and then left standing at room temperature for 1 hour. After washing, an o-phenylenediamine solution (100 μL) prepared into 0.5 mg/mL with a 0.1 M citrate-phosphate buffer solution (pH 5.0) containing 0.02% (w/v) hydrogen peroxide was added to each well and left standing at 25° C. for 10 minutes. Then, color reaction was terminated by the addition of a 1 M sulfuric acid solution (50 μL) to each well. Then, absorbance at 490 nm was measured with a microplate reader.
On the technique in general: In an ELISA, binding on a coated surface is turned into a signal by an enzyme label.

A further experiment concerns the target T2, GAL13-BSA (Bos taurus, UniProt P02769).
T2 construct: purchased Sigma-Aldrich Co. LLC
In words: Dissociation constant measurement, Biacore T200 (Example 8). In kind it is binding. The conditions noted are these: Biacore T200, sensor chip CM5; ligand GAL13-BSA. On the procedure:
(§1) The dissociation constant (Kd value) of the monoclonal antibody SJ-5 was measured by the following approach: BSA containing AGEs derived from glyceraldehyde (Glycer-AGEs-BSA) was diluted with a 10 mM sodium acetate solution (pH 4.0) to prepare a ligand solution with a final concentration of 100 μg/mL. Biacore T200 (GE Healthcare Japan Corp.) was used for the immobilization of the ligand and the calculation of the KD value. The ligand solution was immobilized onto sensor chip CM5 (GE Healthcare Japan Corp.) using an amine coupling kit (GE Healthcare Japan Corp.). Subsequently, antibody dilution solutions containing the monoclonal antibody diluted into concentrations from 0 to 400 nM were prepared, and the Kd value was calculated.
BSA chemically bonded to the peak obtained in fractionation by HPLC (GAL13-BSA) was diluted with a 10 mM sodium acetate solution (pH 5.0) to prepare a ligand solution with a final concentration of 25 μg/mL.
Background: Surface plasmon resonance follows binding to a sensor surface in real time, without labels.

Experiment [2] deals with T1, Glycer-AGEs-BSA. The experiment is described as above. In kind it is binding. Conditions: Biacore T200, sensor chip CM5; ligand Glycer-AGEs-BSA; antibody 0 to 400 nM. On the procedure: as §1

T1 sequence (P02769 25-607): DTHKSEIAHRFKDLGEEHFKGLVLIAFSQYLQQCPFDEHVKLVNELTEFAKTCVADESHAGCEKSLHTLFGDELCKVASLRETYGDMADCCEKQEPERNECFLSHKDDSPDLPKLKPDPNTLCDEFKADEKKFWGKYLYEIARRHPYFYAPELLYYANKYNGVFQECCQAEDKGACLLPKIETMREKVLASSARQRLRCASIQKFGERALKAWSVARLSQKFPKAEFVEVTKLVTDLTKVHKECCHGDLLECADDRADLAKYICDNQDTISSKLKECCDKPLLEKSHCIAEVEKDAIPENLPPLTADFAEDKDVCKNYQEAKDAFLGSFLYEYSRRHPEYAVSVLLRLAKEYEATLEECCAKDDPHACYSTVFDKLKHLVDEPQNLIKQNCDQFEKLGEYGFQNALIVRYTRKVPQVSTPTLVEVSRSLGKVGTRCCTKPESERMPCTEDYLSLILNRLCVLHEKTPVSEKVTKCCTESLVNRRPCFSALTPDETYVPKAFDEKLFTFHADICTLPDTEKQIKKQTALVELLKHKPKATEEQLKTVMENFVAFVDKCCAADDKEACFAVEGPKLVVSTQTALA
Sequence of A-peak-BSA (P02769 25-607): as above
T2 sequence (P02769 25-607): as above

B1: PB-1: mouse monoclonal antibody raised against A-peak-BSA; heavy-chain variable region SEQ ID NO 18, light-chain variable region SEQ ID NO 22 (antibody, listed as Mus musculus, V domains shown)
VH: EVRLQQSGPELVKPGTSVKISCKASGYSFTGYYMHWVKQSPVKSLEWIGRIIPYNGATSYNQNFKDKASLTVDKSSRTAYMDLHSLTSEDSAVYYCARSRYYGRAPYYFDYWGQGTTLTVSS
VL: DVVVTQTPLSLPVSLGDQASISCRSSQSIVHSNGNTYLEWYLQKPGQSPKLLIYKVSNRFSGVPDRISGSGSGTDFTLKISRVEAGDLGVYSCFQGSHVPFTFGSGTKLEIK
As to B1, the “oxidized DAB (absorbance at 460 nm) compared with PBS or Ctrl-mIgG treatment group” value in the experiment with A-peak-BSA is “largely decreased”.

B2: SJ-5: mouse monoclonal antibody raised against GAL13-MSA; heavy-chain variable region SEQ ID NO 4, light-chain variable region SEQ ID NO 8 (antibody, listed as Mus musculus, V domains shown)
VH: EVMLVESGGRLVKPGGSLKLSCAASGFTFSSYGMSWVRQTPEKRLEWVATISGGGSYTYYPDSVKGRFTISRDNVKNNLYLQMSSLRSEDTALYYCARRGAYGDYGWFAYWGQGTLVTVSA
VL: DIVLTQSPATLSVTPGDSVSLSCRASQSINNNLHWYQQKSHESPRLLIKCASQSISGIPSRFSGSGSGTDFTLSINSVETEDFGMYFCQQSNSWPLTFGAGTKLELK
As to B2, the “specificity: reactivity with Glycer-AGEs-BSA” value in the experiment with Glycer-AGEs-BSA [1] is “positive”. Besides, the dissociation constant (Kd) with GAL13-BSA amounted to 87.5 nM; with Glycer-AGEs-BSA [2], 57.4 nM.

These data come from US12391751B2, “Antibody against advanced glycation end products and use thereof” (Bloom Technology Corporation, priority 2018, dated 2025).
